The chains are these.
B1: h77A-1.28 (antibody, V domains shown)
VH: QIQLVQSGTEVKKPGASVKVSCKASGYTFTNYGMNWVRQAPGQGLEWMGWINTYTGEPTYADDFKGRFTFTTDTSTSTAYMELRSLRSDDTAVYFCARYDHTMDYWGQGTLVTVSS
VL: EIVLTQSPDSLAVSLGERATINCKSSQSLLNSGTRKNYLAWYQQKAGQSPKLLIYWTSTRESGVPDRFSGSGSGTDFTLTIDSLQAEDVAVYYCKQSYTLYTFGGGTKVEIK
notes: captured by anti-human Fc
B2: h77A-1.36 (antibody, V domains shown)
VH: QIQLVQSGAEVKKPGASVKVSCKASGYTFTNYGMNWVRQAPGQGLEWMGWINTYTGEPTYADDFKGRFTFTTDTSTTTAYMELRSLRSDDTAVYFCARYDHHMDYWGQGTLVTVSS
VL: EIVLTQSPDSLAVSLGERATINCKSSQSLFNSGTRKNYLAWYQQKAGQSPKLLIYWTSTRESGVPDRFSGSGSGTDFTLTIDSLQAEDVAVYYCKQSYTLYTFGGGTKVEIK
notes: captured by anti-human Fc
B3: h77A-1.37 (antibody, V domains shown)
VH: QIQLVQSGAEVKKPGASVKVSCKASGYTFTKYGMNWVRQAPGQGLEWMGWINTYTGESTYADDFKGRFTFTTDTSTSTAYMELRSLRSDDTAVYFCARYDHVMDYWGQGTLVTVSS
VL: EIVLTQSPDSLAVSLGERATINCKSSQSLLNSGTRKNYLAWYQQKAGQSPKLLIYWTSTRESGVPDRFSGSGSGTDFTLTIDSLQAEDVAVYYCKQSYTLYTFGGGTKVEIK
notes: captured by anti-human Fc
B4: h77A-1.38 (antibody, V domains shown)
VH: QIQLVQSGTEVKKPGASVKVSCKASGYTFTNYGMNWVRQAPGQGLEWMGWINTYTGEPTYADDFKGRFTFTTDTSTRTAYMELRSLRSDDTAVYFCARYDHLMDYWGQGTLVTVSS
VL: EIVLTQSPDSLAVSLGERATINCKSSQSLLNSGTRKNYLAWYQQKAGQSPKLLIYWTSTRESGVPDRFSGSGSGTDFTLTIDSLQAEDVAVYYCKQSYTLYTFGGGTKVEIK
notes: captured by anti-human Fc
B5: h77A-1.29 (antibody, V domains shown)
VH: QIQLVQSGAEVKKPGASVKVSCKASGYTFTNYGMNWVRQAPGQGLEWMGWINTYTGEPTYADDFKGRFTFTTDTSTSTAYMELRSLRSDDTAVYFCARYDHFMDYWGQGTLVTVSS
VL: EIVLTQSPDSLAVSLGERATINCKSSQSLFNSGTRKNYLAWYQQKAGQSPKLLIYWTSTRESGVPDRFSGSGSGTDFTLTIDSLQAEDVAVYYCKQSYTLYTFGGGTKVEIK
notes: captured by anti-human Fc
B6: h77A-1.35 (antibody, V domains shown)
VH: QIQLVQSGTEVKKPGASVKVSCKASGYTFTNYGMNWVRQAPGQGLEWMGWINTYTGEPTYADDFKGRFTFTTDTSTSTAYMELRSLRSDDTAVYFCARYDHHMDYWGQGTLVTVSS
VL: EIVLTQSPDSLTVSLGERATINCKSSQSLLNSGTRKNYLAWYQQKAGQSPKLLIYWTSTRESGVPDRFSGSGSGTDFTLTIDSLQAEDVAVYYCKQSYTLYTFGGGTKVEIK
notes: captured by anti-human Fc
B7: h77A-1.31 (antibody, V domains shown)
VH: QIQLVQSGAEVKKPGASVKVSCKASGYTFTNYGMNWVRQAPGQGLEWMGWINTYTGEPTYADDFKGRFTFTTDTSTSTAYMELRSLRSDDTAVYFCARYDHPMDYWGQGTLVTVSS
VL: EIVLTQSPDSLAVSLGERATINCKSSQSLLNSGTRKNYLAWYQQKAGQSPKLLIYWTSTRESGVPDRFSGSGSGTDFTLTIDRLQAEDVAVYYCKQSYTLYTFGGGTKVEIK
notes: captured by anti-human Fc
B8: h77A-1.33 (antibody, V domains shown)
VH: QIQLVQSGAEVKKPGASVKVSCKASGYTFTKYGMNWVRQAPGQGLEWMGWINTYTGEPTYADDFKGRFTFTTDTSTSTAYMELRSLRSDDTAVYFCARYDHNMDYWGQGTLVTVSS
VL: EIVLTQSPDSLAVSLGERATINCKSSQSLLNSGTRKNYLAWYQQKAGQSPKLLIYWTSTRESGVPDRFSGSGSGTDFTLTIDSLQAEDVAVYYCKQSYTLYTFGGGTKVEIK
notes: captured by anti-human Fc

Consider eight molecules from patent US20250084155A1 (University of Texas, published 2025).

For this assay, the target named is T1, HSP70 (human HSP70; the antigen of the binning, humanization and variant binding assays) (human, UniProt P0DMV8 1-641, limits assumed).
T1 construct: also called hu HSP70
T1 sequence (P0DMV8 whole entry, change not shown): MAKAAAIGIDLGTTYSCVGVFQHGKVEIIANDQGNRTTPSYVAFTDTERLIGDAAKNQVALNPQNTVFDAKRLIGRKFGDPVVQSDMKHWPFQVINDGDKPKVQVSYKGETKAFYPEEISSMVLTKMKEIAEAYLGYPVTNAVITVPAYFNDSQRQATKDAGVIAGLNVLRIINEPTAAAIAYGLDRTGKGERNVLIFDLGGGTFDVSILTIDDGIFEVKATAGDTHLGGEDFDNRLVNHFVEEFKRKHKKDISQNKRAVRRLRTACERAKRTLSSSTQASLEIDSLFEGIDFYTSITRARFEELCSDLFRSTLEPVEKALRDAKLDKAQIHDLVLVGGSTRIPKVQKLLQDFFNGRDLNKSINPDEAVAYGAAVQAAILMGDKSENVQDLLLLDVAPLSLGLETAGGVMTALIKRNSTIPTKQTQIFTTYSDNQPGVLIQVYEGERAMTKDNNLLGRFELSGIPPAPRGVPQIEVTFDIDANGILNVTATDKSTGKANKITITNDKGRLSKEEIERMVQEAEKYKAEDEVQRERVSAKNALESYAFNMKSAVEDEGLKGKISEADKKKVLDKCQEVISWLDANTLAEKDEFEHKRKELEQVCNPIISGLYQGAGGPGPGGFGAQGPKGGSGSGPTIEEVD
The assay can be described thus: BLI, anti-human Fc capture, antigen 100 nM. On the procedure: Binding assays were performed as follows. Antibody variants were immobilized using anti-human Fc onto the surface of a series of biosensors at […]. Antigen, at 100 nM, was passed over the surface to generate a binding response. Binding data for the antibody:antigen interactions were collected at 25° C. on the biosensors. In Table 14, X=610 represents captured antigen value (nM) at the beginning of the dissociation phase (measured at 610 seconds after the biosensor was initially contacted with antigen) and X=1495 represents captured antigen value (nM) at the end of the dissociation phase (measured at 1495 seconds after the biosensor was initially contacted with antigen). In Table 14, antibodies with an X=610 value greater than 0.2 and a % dissociation less than 10% are shown in bold.
With B1, the “% Diss” value was 18.8%.

With B2, the “% Diss” value turned out to be 6.96%.

With B3, the “% Diss” value was determined as 22.8%.

For B4, the “% Diss” value stood at 10.5%.

With B5, the “% Diss” value was 28.3%.

For the molecule B6, the “% Diss” value worked out at 4.38%.

For the molecule B7, the “% Diss” value was -3.52%.

On to B8, for which the “% Diss” value came out at 20.6%.
